According to patent US20260297187 (published 2026):
One block for each binder: values may come before it.

Assays:
Experiment in all cases: BLI
CEACAM6 = biological target: T1, CEACAM6 (human, UniProt P40199)
T1 chain: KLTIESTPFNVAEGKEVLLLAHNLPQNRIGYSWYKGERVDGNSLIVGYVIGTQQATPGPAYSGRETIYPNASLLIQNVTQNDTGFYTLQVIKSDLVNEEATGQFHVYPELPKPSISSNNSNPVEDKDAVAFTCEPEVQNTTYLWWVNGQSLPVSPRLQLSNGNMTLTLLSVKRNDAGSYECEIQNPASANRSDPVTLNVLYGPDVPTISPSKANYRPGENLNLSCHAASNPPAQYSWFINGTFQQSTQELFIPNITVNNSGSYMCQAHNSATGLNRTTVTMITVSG

CEACAM1-his = biological target: T2, CEACAM1-his (human)
T2 chain: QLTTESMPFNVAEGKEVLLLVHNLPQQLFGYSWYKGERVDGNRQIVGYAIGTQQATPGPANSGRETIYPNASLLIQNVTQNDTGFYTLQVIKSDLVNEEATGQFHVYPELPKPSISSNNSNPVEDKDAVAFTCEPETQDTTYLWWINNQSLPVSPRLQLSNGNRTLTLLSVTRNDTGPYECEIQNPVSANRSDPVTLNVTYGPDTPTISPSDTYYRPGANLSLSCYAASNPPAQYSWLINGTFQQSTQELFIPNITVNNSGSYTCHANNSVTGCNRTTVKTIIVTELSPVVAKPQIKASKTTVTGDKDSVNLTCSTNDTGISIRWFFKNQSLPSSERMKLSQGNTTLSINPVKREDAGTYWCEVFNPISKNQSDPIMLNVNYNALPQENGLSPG

CEACAM3 = biological target: T3, CEACAM3 (human, UniProt P40198)
T3 chain: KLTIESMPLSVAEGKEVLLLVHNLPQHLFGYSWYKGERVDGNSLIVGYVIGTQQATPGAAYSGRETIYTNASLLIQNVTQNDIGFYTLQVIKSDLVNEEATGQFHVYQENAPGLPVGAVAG

CEACAM5 = biological target: T4, CEACAM5 (human, UniProt P06731)
T4 chain: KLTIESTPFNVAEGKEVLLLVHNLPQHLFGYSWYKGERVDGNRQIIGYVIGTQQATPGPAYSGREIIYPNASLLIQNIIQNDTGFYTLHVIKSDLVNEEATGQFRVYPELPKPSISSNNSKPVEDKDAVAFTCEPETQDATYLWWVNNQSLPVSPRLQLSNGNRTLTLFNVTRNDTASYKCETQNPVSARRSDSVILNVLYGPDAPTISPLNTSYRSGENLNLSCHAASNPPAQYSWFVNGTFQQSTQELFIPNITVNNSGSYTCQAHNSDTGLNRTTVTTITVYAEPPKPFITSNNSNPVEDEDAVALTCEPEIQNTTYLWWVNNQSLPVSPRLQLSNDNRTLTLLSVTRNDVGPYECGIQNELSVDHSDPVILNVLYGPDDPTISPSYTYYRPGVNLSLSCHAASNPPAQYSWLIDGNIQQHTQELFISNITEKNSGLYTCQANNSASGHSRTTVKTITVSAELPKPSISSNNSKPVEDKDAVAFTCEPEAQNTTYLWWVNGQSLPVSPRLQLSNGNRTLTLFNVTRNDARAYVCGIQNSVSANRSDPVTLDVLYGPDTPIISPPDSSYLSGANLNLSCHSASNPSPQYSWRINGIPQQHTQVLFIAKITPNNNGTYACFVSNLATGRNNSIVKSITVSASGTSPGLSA

- binding result (CEACAM6): no binding
- Kd (CEACAM1-his): 0.955 nM
- binding result (CEACAM3): no binding
B1: 2C10 (antibody, V domains shown)
VH: QVQLQQSGAELVRPGTSVKVSCKASGFAFTNYLIEWVKQRPGQGLEWIGVLNPGSGATNYNEKFKGKATLTADKSSSTAYMQLSSLTSDDSAVYFCARGIYGGYFAMDYWGQGTSVTVSS
VL: DIQMTQTTSSLSASLGDRVTISCRASQDITTYLNWYQQRPDGTVKLLIYYTSRLHSGVPSRFSGSGSGTEYSLTISNLEQEDIATYFCQQGNTLPRTFGGGTKLEIR

- binding result (CEACAM6): no binding
- binding result (CEACAM5): no binding
- binding result (CEACAM3): no binding
B2: 4D10 (antibody, V domains shown)
VH: EVQLQQSGPELVKPGASVKMSCKASGYTFSSYVIHWVRQKPGQGLEWIGYFNPYNNGTNYNENFKGKATLTSGKSSSTAYMELSSLTSEDSAVYYCARYYYASGSLYFDYWGQGTTLTVSS
VL: EIVLTQSPAIATASLGQKVTITCSASSSVSYMHWYQQKSGTSPKPWIYEISKLASGVPTRFSGSGSGTSYSLTISSMEAEDAAIYYCQQWNYPLITFGAGTKLELK
